Laboratory results taken from patent US20190225669A1 (ACCELERON PHARMA, published 2019).
Like-named read-outs stand apart in the source and are kept apart here.

B1: BMP9 (ligand, UniProt Q9UK05 320-429, looked up)
chain: SAGAGSHCQKTSLRVNFEDIGWDSWIIAPKEYEAYECKGGCFFPLADDVTPTKHAIVQTLVHLKFPTKVGKACCVPTKLSPISVLYKDDMGVPTLKYHYEGMSVAECGCR
notes: also called GDF2
B2: activin A (ligand, UniProt P08476 311-426, looked up)
chain: GLECDGKVNICCKKQFFVSFKDIGWNDWIIAPSGYHANYCEGECPSHIAGTSGSSLSFHSTVINHYRMRGHSPFANLKSCCVPTKLRPMSMLYYDDGQNIIKKDIQNMIVEECGCS

Tests used:
ActRIIB-Fc homodimer [1] = biological target: T1, ActRIIB-Fc homodimer (UniProt Q13705 19-137); experiment: Biacore SPR
T1 construct: extracellular domain; also called ActRIIB homodimer
T1 sequence (looked up): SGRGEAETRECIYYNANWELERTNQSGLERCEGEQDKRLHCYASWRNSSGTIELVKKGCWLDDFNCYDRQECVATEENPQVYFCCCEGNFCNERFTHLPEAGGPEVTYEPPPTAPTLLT
Description: (§1) Ligands were injected and allowed to flow over the captured receptor protein.

ALK3-Fc homodimer = biological target: T2, ALK3-Fc homodimer (UniProt P36894 24-152); experiment: Biacore SPR
T2 construct: extracellular domain
T2 sequence (P36894 24-152): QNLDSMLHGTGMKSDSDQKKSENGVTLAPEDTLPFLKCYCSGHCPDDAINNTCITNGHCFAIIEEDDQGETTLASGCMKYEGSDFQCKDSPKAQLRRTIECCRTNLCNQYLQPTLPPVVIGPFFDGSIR
Description: as §1

BMPRII-Fc homodimer [2] = biological target: T3, BMPRII-Fc homodimer (UniProt Q13873 27-150); experiment: Biacore SPR
T3 construct: extracellular domain
T3 sequence (looked up): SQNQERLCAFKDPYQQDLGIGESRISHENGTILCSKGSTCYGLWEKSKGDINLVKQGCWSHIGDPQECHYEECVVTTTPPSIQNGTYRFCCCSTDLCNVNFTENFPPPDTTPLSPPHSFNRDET
Description: as §1

ActRIIA-Fc homodimer = biological target: T4, ActRIIA-Fc homodimer (UniProt P27037 20-135); experiment: Biacore SPR; kinetics indeterminate (transient)
T4 construct: extracellular domain
T4 sequence (P27037 20-135): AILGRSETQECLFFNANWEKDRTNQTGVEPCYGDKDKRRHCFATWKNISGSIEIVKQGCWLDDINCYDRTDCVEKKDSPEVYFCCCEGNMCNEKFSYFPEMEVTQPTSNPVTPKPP
Description: as §1

ActRIIB-Fc homodimer [3] = biological target: T1, ActRIIB-Fc homodimer; experiment: Biacore SPR; remark: listed apart in the source
Description: as §1

BMPRII-Fc homodimer [4] = biological target: T3, BMPRII-Fc homodimer; experiment: Biacore SPR; remark: listed apart in the source
Description: as §1

BMPRII-Fc homodimer [5] = biological target: T3, BMPRII-Fc homodimer; experiment: Biacore SPR; remark: listed apart in the source
Description: A Biacore™-based binding assay was used to compare ligand binding selectivity of the BMPRII-Fc:ALK2-Fc heterodimeric complex described above with that of BMPRII-Fc and ALK2-Fc homodimeric complexes. […] Ligands were injected and allowed to flow over the captured receptor protein.

ActRIIB-Fc homodimer [6] = biological target: T1, ActRIIB-Fc homodimer; experiment: Biacore SPR; remark: listed apart in the source
Description: as §1

ActRIIB-Fc homodimer [7] = biological target: T1, ActRIIB-Fc homodimer; experiment: Biacore SPR; remark: listed apart in the source
Description: as §1

ActRIIB-Fc homodimer [8] = biological target: T1, ActRIIB-Fc homodimer; experiment: Biacore SPR; remark: listed apart in the source
Description: as §1

BMPRII-Fc homodimer [9] = biological target: T3, BMPRII-Fc homodimer; experiment: Biacore SPR; remark: listed apart in the source
Description: as §1

BMPRII-Fc homodimer [10] = biological target: T3, BMPRII-Fc homodimer; experiment: Biacore SPR; kinetics indeterminate (transient)
Description: as §1

Row | Binder | Kd (ActRIIB-Fc homodimer [1]) | koff (ActRIIB-Fc homodimer [1]) | kon (ActRIIB-Fc homodimer [1]) | binding result (ALK3-Fc homodimer) | Kd (ActRIIB-Fc homodimer [3]) | koff (ActRIIB-Fc homodimer [3]) | kon (ActRIIB-Fc homodimer [3]) | Kd (ActRIIB-Fc homodimer [6]) | koff (ActRIIB-Fc homodimer [6]) | kon (ActRIIB-Fc homodimer [6]) | Kd (ActRIIB-Fc homodimer [7]) | koff (ActRIIB-Fc homodimer [7]) | kon (ActRIIB-Fc homodimer [7]) | Kd (ActRIIB-Fc homodimer [8]) | koff (ActRIIB-Fc homodimer [8]) | kon (ActRIIB-Fc homodimer [8]) | further results
1 | B1 | 0.034 nM | 0.0013 s⁻¹ | 3.9e+07 M⁻¹ s⁻¹ | no binding | 0.034 nM | 0.0013 s⁻¹ | 3.9e+07 M⁻¹ s⁻¹ | 0.034 nM | 0.0013 s⁻¹ | 3.9e+07 M⁻¹ s⁻¹ | 0.01 nM | 0.0012 s⁻¹ | 1.2e+08 M⁻¹ s⁻¹ | 0.077 nM | 0.0011 s⁻¹ | 1.4e+07 M⁻¹ s⁻¹ | Kd (BMPRII-Fc homodimer [2]): 2.1 nM; koff (BMPRII-Fc homodimer [2]): 0.026 s⁻¹; kon (BMPRII-Fc homodimer [2]): 1.2e+07 M⁻¹ s⁻¹; Kd (ActRIIA-Fc homodimer): > 10 nM; Kd (BMPRII-Fc homodimer [4]): 2.1 nM; koff (BMPRII-Fc homodimer [4]): 0.026 s⁻¹; kon (BMPRII-Fc homodimer [4]): 1.2e+07 M⁻¹ s⁻¹; Kd (BMPRII-Fc homodimer [5]): 1.6 nM; koff (BMPRII-Fc homodimer [5]): 0.073 s⁻¹; kon (BMPRII-Fc homodimer [5]): 4.5e+07 M⁻¹ s⁻¹; Kd (BMPRII-Fc homodimer [9]): 2.1 nM; koff (BMPRII-Fc homodimer [9]): 0.026 s⁻¹; kon (BMPRII-Fc homodimer [9]): 1.2e+07 M⁻¹ s⁻¹
2 | B2 | 0.011 nM | 0.00014 s⁻¹ | 1.3e+07 M⁻¹ s⁻¹ | no binding | 0.019 nM | 0.00023 s⁻¹ | 1.2e+07 M⁻¹ s⁻¹ | 0.015 nM | 0.00017 s⁻¹ | 1.2e+07 M⁻¹ s⁻¹ | 0.011 nM | 0.00014 s⁻¹ | 1.3e+07 M⁻¹ s⁻¹ | 0.019 nM | 0.00023 s⁻¹ | 1.2e+07 M⁻¹ s⁻¹ | Kd (BMPRII-Fc homodimer [10]): > 43 nM
